# T1: Recombinant mouse MMR (R&D Systems) (mouse, UniProt Q61830 20-1388)
# T1 construct: Bought from R&D Systems; Immobilised on CM5 chip (SPR) or coated on plates (ELISA); also called mMMR; recombinant mMMR
# T1 sequence: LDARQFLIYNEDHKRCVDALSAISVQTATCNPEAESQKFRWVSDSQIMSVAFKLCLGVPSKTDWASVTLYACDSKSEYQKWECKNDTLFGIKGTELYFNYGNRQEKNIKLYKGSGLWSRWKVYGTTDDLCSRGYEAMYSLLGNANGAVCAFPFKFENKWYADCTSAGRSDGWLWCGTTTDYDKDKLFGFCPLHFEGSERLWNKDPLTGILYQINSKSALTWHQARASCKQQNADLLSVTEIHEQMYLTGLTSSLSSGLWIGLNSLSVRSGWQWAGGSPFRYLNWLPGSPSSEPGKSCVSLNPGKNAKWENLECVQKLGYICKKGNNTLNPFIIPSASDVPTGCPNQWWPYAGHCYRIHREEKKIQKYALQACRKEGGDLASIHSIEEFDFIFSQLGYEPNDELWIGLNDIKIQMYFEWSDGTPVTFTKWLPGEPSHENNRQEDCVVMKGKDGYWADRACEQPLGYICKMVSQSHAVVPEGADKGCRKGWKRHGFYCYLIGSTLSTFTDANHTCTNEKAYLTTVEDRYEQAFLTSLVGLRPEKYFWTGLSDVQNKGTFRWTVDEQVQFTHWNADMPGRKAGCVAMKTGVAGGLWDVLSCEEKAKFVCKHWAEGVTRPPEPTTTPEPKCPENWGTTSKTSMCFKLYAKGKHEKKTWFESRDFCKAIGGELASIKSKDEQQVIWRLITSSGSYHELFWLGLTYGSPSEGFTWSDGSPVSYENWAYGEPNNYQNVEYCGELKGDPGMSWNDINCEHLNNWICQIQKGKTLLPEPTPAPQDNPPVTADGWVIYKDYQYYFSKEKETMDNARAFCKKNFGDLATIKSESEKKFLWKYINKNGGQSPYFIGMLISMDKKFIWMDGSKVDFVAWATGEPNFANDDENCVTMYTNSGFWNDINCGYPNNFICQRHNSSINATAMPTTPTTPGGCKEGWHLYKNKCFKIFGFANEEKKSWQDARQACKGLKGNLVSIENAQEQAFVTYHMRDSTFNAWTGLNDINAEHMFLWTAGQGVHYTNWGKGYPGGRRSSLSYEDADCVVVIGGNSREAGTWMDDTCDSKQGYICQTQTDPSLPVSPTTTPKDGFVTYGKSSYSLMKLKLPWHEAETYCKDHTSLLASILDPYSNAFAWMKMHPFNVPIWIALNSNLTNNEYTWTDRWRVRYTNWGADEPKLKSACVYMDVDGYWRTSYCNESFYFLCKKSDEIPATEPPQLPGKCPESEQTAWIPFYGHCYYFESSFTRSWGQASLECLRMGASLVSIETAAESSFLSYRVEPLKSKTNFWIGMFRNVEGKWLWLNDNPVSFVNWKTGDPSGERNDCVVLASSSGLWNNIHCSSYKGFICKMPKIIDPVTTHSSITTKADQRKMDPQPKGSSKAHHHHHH
# T2: Recombinant human MMR (R&D Systems) (human, UniProt P22897 19-1383)
# T2 construct: Bought from R&D Systems; also called hMMR; recombinant hMMR
# T2 sequence: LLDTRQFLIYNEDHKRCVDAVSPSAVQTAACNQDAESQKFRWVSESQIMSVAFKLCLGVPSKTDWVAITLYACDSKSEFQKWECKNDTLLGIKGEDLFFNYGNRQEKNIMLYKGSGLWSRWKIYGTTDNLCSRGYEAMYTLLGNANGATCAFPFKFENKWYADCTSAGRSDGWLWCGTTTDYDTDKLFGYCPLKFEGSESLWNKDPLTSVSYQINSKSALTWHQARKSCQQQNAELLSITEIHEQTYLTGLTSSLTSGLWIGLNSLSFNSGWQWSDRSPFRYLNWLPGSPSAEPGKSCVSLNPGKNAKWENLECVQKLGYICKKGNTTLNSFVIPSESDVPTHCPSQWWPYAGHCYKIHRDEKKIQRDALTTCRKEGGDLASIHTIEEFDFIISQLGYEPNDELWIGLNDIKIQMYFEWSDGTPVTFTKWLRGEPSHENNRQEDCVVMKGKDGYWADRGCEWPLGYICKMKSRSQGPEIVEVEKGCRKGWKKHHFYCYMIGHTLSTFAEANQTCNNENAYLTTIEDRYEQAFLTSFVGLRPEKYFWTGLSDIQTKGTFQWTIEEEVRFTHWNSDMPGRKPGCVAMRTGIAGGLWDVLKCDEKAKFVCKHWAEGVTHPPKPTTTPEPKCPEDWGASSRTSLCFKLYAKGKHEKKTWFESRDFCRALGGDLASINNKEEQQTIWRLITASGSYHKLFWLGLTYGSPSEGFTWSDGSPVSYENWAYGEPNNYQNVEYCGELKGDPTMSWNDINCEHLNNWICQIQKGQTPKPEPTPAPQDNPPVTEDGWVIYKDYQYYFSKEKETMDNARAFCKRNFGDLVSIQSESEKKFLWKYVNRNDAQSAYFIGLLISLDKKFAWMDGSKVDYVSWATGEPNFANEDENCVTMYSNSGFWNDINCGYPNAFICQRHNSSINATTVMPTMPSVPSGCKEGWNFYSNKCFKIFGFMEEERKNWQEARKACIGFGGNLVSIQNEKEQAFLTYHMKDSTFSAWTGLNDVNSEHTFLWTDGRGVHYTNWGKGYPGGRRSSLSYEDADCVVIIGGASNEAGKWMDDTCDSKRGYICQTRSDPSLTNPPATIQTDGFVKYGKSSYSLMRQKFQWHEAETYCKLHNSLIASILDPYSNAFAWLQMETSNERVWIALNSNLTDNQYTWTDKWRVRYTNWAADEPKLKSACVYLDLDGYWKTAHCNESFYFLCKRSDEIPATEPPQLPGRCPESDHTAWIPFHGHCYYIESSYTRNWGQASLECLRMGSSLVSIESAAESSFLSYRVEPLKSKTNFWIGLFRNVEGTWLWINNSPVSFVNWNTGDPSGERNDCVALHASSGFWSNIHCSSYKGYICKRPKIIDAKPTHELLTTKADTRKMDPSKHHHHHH
# B1: Bivalent anti-MMR Nanobody 1 with (Gly4Ser)3 linker (VHH)
# chain: QVQLQESGGGLVQPGGSLRLSCAASGNIFSINAIGWYRQAPGKQRELVATITLSGSTNYADSVKGRFSISRDNAKNTVYLQMNSLKPEDTAVYYCNANTYSDSDVYGYWGQGTQVTVSSGGGGSGGGGSGGGGSQVQLQESGGGLVQPGGSLRLSCAASGNIFSINAIGWYRQAPGKQRELVATITLSGSTNYADSVKGRFSISRDNAKNTVYLQMNSLKPEDTAVYYCNANTYSDSDVYGYWGQGTQVTVSSHHHHHH
# notes: Bivalent tandem of two clone 1 VHH domains in one chain; also called biv MMR linker 1 GS; MMR biv (Gly4Ser)3
# B2: Bivalent anti-MMR Nanobody 1 with llama IgG2 hinge linker (VHH)
# chain: QVQLQESGGGLVQPGGSLRLSCAASGNIFSINAIGWYRQAPGKQRELVATITLSGSTNYADSVKGRFSISRDNAKNTVYLQMNSLKPEDTAVYYCNANTYSDSDVYGYWGQGTQVTVSSAHHSEDPSSKAPKAPMAQVQLQESGGGLVQPGGSLRLSCAASGNIFSINAIGWYRQAPGKQRELVATITLSGSTNYADSVKGRFSISRDNAKNTVYLQMNSLKPEDTAVYYCNANTYSDSDVYGYWGQGTQVTVSSHHHHHH
# notes: Bivalent tandem of two clone 1 VHH domains in one chain; also called biv MMR linker 2 g2c; MMR biv g2c
# B3: Bivalent anti-MMR Nanobody 1 with human IgA hinge linker (VHH)
# chain: QVQLQESGGGLVQPGGSLRLSCAASGNIFSINAIGWYRQAPGKQRELVATITLSGSTNYADSVKGRFSISRDNAKNTVYLQMNSLKPEDTAVYYCNANTYSDSDVYGYWGQGTQVTVSSSPSTPPTPSPSTPPASQVQLQESGGGLVQPGGSLRLSCAASGNIFSINAIGWYRQAPGKQRELVATITLSGSTNYADSVKGRFSISRDNAKNTVYLQMNSLKPEDTAVYYCNANTYSDSDVYGYWGQGTQVTVSSHHHHHH
# notes: Bivalent tandem of two clone 1 VHH domains in one chain; also called biv MMR linker 3 IgA; MMR biv IgA
# B4: Anti-MMR Nanobody clone 3 (VHH)
# VHH: QVQLQESGGGLVQAGGSLRLSCAASGRTFSRDAMGWFRQAPGKEREFVAGISWSGGSTYYADSVKGRFTISRDGAKNTVNLQMNSLKPEDTAVYYCAASSIYGSAVVDGLYDYWGQGTQVTVSS
# notes: Monovalent, His-tagged; also called Anti-MMR Nb3; Nb clone 3
# B5: Anti-MMR Nanobody clone 1 (VHH)
# VHH: QVQLQESGGGLVQPGGSLRLSCAASGNIFSINAIGWYRQAPGKQRELVATITLSGSTNYADSVKGRFSISRDNAKNTVYLQMNSLKPEDTAVYYCNANTYSDSDVYGYWGQGTQVTVSS
# notes: 99mTc-labelled at the His tail in the in vivo experiments; also called Anti-MMR Nb1; Nb MMR cl1
# Biological target: T1, Recombinant mouse MMR (R&D Systems)
# Assay: SPR, immobilised recombinant MMR
# Experimental: (§1) Affinity analysis was performed using a BIAcore T100 (GE Healthcare) with HEPES-buffered saline running buffer (10 mM HEPES with 0.15 M NaCl, 3.4 mM EDTA and 0.005% surfactant P20 at pH 7.4). MRR was immobilized on a CM5 chip in acetate buffer 50 mM (pH 5.0), resulting in 2100 RU MMR coated on the chip. A second channel on the same chip was activated/deactivated in a similar way and served as a negative control. The MMR Nanobodies were used as analytes in 11 different concentrations, ranging from 1 to 2000 nM, at a flow rate of […]. Glycine-HCl 50 mM (pH 2.0) was used for elution. The kinetic and equilibrium parameters (kd, ka and KD) values were calculated from the combined sensogram of all concentrations using BIAcore T100 evaluation software 2.02 (GE Healthcare).
# Bivalent Nanobodies were constructed by linking two anti-MMR Nanobody 1 entities using (G₄S)₃ ([…]; SEQ ID NO:151), llama IgG2 hinge ([…]; SEQ ID NO:152) or human IgA hinge ([…] SEQ ID NO:153) linkers. […] As a negative control Nanobody in all experiments, we consistently used α-BCII10 Nb, which is a binder of the β-lactamase BCII enzyme of Bacillus cereus.
row,fold increase in KD (so in the source) compared to the monovalent clone 1 Nanobody,Binder
1,3 fold,B1
2,3 fold,B2
3,3 fold,B3

# Biological target: T1, Recombinant mouse MMR (R&D Systems)
# Assay: SPR, BIAcore T100, MMR on CM5 chip, Nanobody as analyte
# Experimental: as §1
# Anti-CD206 (anti-MMR) Nanobodies (Nbs), which are the smallest available antigen-binding entities, were created in order to target MMR-positive cells in vivo. Nanobodies were raised against the recombinant extracellular portion of MMR, as described in the Materials and Methods (see also Table 1). The binding characteristics of the monovalent anti-MMR Nanobodies were compared using surface Plasmon resonance (SPR) measurements (Table 2).
koff,kon,Binder
0.0044 s⁻¹,1.04e+06 M⁻¹ s⁻¹,B1
0.00411 s⁻¹,1.02e+06 M⁻¹ s⁻¹,B2
0.0186 s⁻¹,97300 M⁻¹ s⁻¹,B4
0.00428 s⁻¹,913000 M⁻¹ s⁻¹,B3
0.0133 s⁻¹,576000 M⁻¹ s⁻¹,B5

# Biological target: T2, Recombinant human MMR (R&D Systems)
# Assay: SPR, BIAcore T100, human MMR on CM5 chip
# Experimental: as §1
# (§2) The binding characteristics and affinity of selected Nbs towards the recombinant hMMR and recombinant mMMR antigen was examined in further detail using surface plasmon resonance. A combined sensogram was recorded for each Nb (example for NbhmMMRm3.49 in FIG. 7) and the kinetic and equilibrium parameters (kd, ka and KD) values were calculated (Table 8 and Table 9). Most but not all results on binding to mouse or human rMMR obtained via this SPR analysis are in agreement with the results obtained by PE-ELISA.
row,Binder,binding result
1,B4,no binding (tested: analyte 1 to 2000 nM)
2,B5,no binding (tested: analyte 1 to 2000 nM)

# Biological target: T1, Recombinant mouse MMR (R&D Systems)
# Assay: SPR, BIAcore T100, mouse MMR on CM5 chip
# Experimental: as §1, §2
koff,kon,Binder
0.0186 s⁻¹,97300 M⁻¹ s⁻¹,B4
0.0133 s⁻¹,576000 M⁻¹ s⁻¹,B5
